Where no end group is shown, it is not given here. [ ]: non-standard residue; d: D form. The star is where a group is joined. C18 fatty acyl = 18 carbon fatty acyl group covalently attached to Lys; PEG 40 kDa = PEG (40 kDa) covalently attached to Cys; Palmitoyl = CCCCCCCCCCCCCCCC(=O)*; Myristoyl = CCCCCCCCCCCCCC(=O)*; Dab = NCC[C@H](N)C(=O)O; Aib = CC(C)(N)C(=O)O
T1: GIP receptor (UniProt P48546 22-466)
T1 sequence (looked up): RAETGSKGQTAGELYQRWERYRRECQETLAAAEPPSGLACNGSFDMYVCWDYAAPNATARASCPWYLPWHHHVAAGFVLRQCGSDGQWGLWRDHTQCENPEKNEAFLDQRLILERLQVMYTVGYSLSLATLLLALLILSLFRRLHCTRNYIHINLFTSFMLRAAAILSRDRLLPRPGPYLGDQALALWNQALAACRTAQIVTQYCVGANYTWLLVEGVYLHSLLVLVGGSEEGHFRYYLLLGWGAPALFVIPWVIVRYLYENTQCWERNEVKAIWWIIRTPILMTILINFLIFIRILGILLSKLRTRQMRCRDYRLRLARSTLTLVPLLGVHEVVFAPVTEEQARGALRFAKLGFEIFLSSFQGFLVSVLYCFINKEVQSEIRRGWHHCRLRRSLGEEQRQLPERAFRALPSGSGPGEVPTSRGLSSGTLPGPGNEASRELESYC

B1: mt-324 (peptide)
peptide: Y[Aib]QGTFSSDYSIYLDKQAA[Aib]EFVNWLLAGGPSSGAPPPSC-NH2
modifications: N-terminus assumed
SMILES: CC[C@H](C)[C@H](NC(=O)[C@H](CO)NC(=O)[C@H](Cc1ccc(O)cc1)NC(=O)[C@H](CC(=O)O)NC(=O)[C@H](CO)NC(=O)[C@H](CO)NC(=O)[C@H](Cc1ccccc1)NC(=O)[C@@H](NC(=O)CNC(=O)[C@H](CCC(N)=O)NC(=O)C(C)(C)NC(=O)[C@@H](N)Cc1ccc(O)cc1)[C@@H](C)O)C(=O)N[C@@H](Cc1ccc(O)cc1)C(=O)N[C@@H](CC(C)C)C(=O)N[C@@H](CC(=O)O)C(=O)N[C@@H](CCCCN)C(=O)N[C@@H](CCC(N)=O)C(=O)N[C@@H](C)C(=O)N[C@@H](C)C(=O)NC(C)(C)C(=O)N[C@@H](CCC(=O)O)C(=O)N[C@@H](Cc1ccccc1)C(=O)N[C@H](C(=O)N[C@@H](CC(N)=O)C(=O)N[C@@H](Cc1c[nH]c2ccccc12)C(=O)N[C@@H](CC(C)C)C(=O)N[C@@H](CC(C)C)C(=O)N[C@@H](C)C(=O)NCC(=O)NCC(=O)N1CCC[C@H]1C(=O)N[C@@H](CO)C(=O)N[C@@H](CO)C(=O)NCC(=O)N[C@@H](C)C(=O)N1CCC[C@H]1C(=O)N1CCC[C@H]1C(=O)N1CCC[C@H]1C(=O)N[C@@H](CO)C(=O)N[C@@H](CS)C(N)=O)C(C)C
B2: mt-308 (peptide)
peptide: Y[Aib]EGTFTSDYSIYLDKQAA[Aib]EFVCWLLAGGPSSGAPPPSK-NH2
modifications: N-terminus assumed
SMILES: CC[C@H](C)[C@H](NC(=O)[C@H](CO)NC(=O)[C@H](Cc1ccc(O)cc1)NC(=O)[C@H](CC(=O)O)NC(=O)[C@H](CO)NC(=O)[C@@H](NC(=O)[C@H](Cc1ccccc1)NC(=O)[C@@H](NC(=O)CNC(=O)[C@H](CCC(=O)O)NC(=O)C(C)(C)NC(=O)[C@@H](N)Cc1ccc(O)cc1)[C@@H](C)O)[C@@H](C)O)C(=O)N[C@@H](Cc1ccc(O)cc1)C(=O)N[C@@H](CC(C)C)C(=O)N[C@@H](CC(=O)O)C(=O)N[C@@H](CCCCN)C(=O)N[C@@H](CCC(N)=O)C(=O)N[C@@H](C)C(=O)N[C@@H](C)C(=O)NC(C)(C)C(=O)N[C@@H](CCC(=O)O)C(=O)N[C@@H](Cc1ccccc1)C(=O)N[C@H](C(=O)N[C@@H](CS)C(=O)N[C@@H](Cc1c[nH]c2ccccc12)C(=O)N[C@@H](CC(C)C)C(=O)N[C@@H](CC(C)C)C(=O)N[C@@H](C)C(=O)NCC(=O)NCC(=O)N1CCC[C@H]1C(=O)N[C@@H](CO)C(=O)N[C@@H](CO)C(=O)NCC(=O)N[C@@H](C)C(=O)N1CCC[C@H]1C(=O)N1CCC[C@H]1C(=O)N1CCC[C@H]1C(=O)N[C@@H](CO)C(=O)N[C@@H](CCCCN)C(N)=O)C(C)C
B3: mt-276 (peptide)
peptide: Y[Aib]QGTFTSDYSIYLD[Dab]QAA[Aib]EFVNWLLAGGPSSGAPPPSC-NH2
modifications: N-terminus assumed
SMILES: CC[C@H](C)[C@H](NC(=O)[C@H](CO)NC(=O)[C@H](Cc1ccc(O)cc1)NC(=O)[C@H](CC(=O)O)NC(=O)[C@H](CO)NC(=O)[C@@H](NC(=O)[C@H](Cc1ccccc1)NC(=O)[C@@H](NC(=O)CNC(=O)[C@H](CCC(N)=O)NC(=O)C(C)(C)NC(=O)[C@@H](N)Cc1ccc(O)cc1)[C@@H](C)O)[C@@H](C)O)C(=O)N[C@@H](Cc1ccc(O)cc1)C(=O)N[C@@H](CC(C)C)C(=O)N[C@@H](CC(=O)O)C(=O)N[C@@H](CCN)C(=O)N[C@@H](CCC(N)=O)C(=O)N[C@@H](C)C(=O)N[C@@H](C)C(=O)NC(C)(C)C(=O)N[C@@H](CCC(=O)O)C(=O)N[C@@H](Cc1ccccc1)C(=O)N[C@H](C(=O)N[C@@H](CC(N)=O)C(=O)N[C@@H](Cc1c[nH]c2ccccc12)C(=O)N[C@@H](CC(C)C)C(=O)N[C@@H](CC(C)C)C(=O)N[C@@H](C)C(=O)NCC(=O)NCC(=O)N1CCC[C@H]1C(=O)N[C@@H](CO)C(=O)N[C@@H](CO)C(=O)NCC(=O)N[C@@H](C)C(=O)N1CCC[C@H]1C(=O)N1CCC[C@H]1C(=O)N1CCC[C@H]1C(=O)N[C@@H](CO)C(=O)N[C@@H](CS)C(N)=O)C(C)C
B4: mt-306 (peptide)
peptide: Y[Aib]EGTFTSDYSIYLDKQAA[Aib]EFVCWLLAGGPSSGAPPPSK(Myristoyl)-NH2
modifications: N-terminus assumed
SMILES: CCCCCCCCCCCCCC(=O)NCCCC[C@H](NC(=O)[C@H](CO)NC(=O)[C@@H]1CCCN1C(=O)[C@@H]1CCCN1C(=O)[C@@H]1CCCN1C(=O)[C@H](C)NC(=O)CNC(=O)[C@H](CO)NC(=O)[C@H](CO)NC(=O)[C@@H]1CCCN1C(=O)CNC(=O)CNC(=O)[C@H](C)NC(=O)[C@H](CC(C)C)NC(=O)[C@H](CC(C)C)NC(=O)[C@H](Cc1c[nH]c2ccccc12)NC(=O)[C@H](CS)NC(=O)[C@@H](NC(=O)[C@H](Cc1ccccc1)NC(=O)[C@H](CCC(=O)O)NC(=O)C(C)(C)NC(=O)[C@H](C)NC(=O)[C@H](C)NC(=O)[C@H](CCC(N)=O)NC(=O)[C@H](CCCCN)NC(=O)[C@H](CC(=O)O)NC(=O)[C@H](CC(C)C)NC(=O)[C@H](Cc1ccc(O)cc1)NC(=O)[C@@H](NC(=O)[C@H](CO)NC(=O)[C@H](Cc1ccc(O)cc1)NC(=O)[C@H](CC(=O)O)NC(=O)[C@H](CO)NC(=O)[C@@H](NC(=O)[C@H](Cc1ccccc1)NC(=O)[C@@H](NC(=O)CNC(=O)[C@H](CCC(=O)O)NC(=O)C(C)(C)NC(=O)[C@@H](N)Cc1ccc(O)cc1)[C@@H](C)O)[C@@H](C)O)[C@@H](C)CC)C(C)C)C(N)=O

Columns and labels:
Assay in all cases: cell-based or functional assay
GLP-1 receptor = GLP-1 receptor (UniProt P43220 24-463, limits assumed)
glucagon receptor = glucagon receptor (UniProt P47871 26-477, limits assumed)
Sequence of glucagon receptor (P47871 26-477 limits assumed): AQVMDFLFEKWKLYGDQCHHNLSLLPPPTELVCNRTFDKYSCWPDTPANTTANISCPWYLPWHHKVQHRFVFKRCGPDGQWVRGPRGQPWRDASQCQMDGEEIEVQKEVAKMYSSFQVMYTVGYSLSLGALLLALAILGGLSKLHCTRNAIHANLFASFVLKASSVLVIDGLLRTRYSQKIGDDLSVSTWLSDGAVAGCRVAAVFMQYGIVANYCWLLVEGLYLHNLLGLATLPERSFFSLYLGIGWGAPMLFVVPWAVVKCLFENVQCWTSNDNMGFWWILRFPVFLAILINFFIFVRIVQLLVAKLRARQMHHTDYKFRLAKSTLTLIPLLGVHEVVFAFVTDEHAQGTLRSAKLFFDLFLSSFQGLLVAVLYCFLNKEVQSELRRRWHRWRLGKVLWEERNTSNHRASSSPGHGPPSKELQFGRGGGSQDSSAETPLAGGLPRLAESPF

GIP receptor = biological target: T1, GIP receptor

Binder	EC50 (GLP-1 receptor) [pM]	relative activity (GLP-1 receptor) [%]	EC50 (glucagon receptor) [pM]	relative activity (glucagon receptor) [%]	EC50 (GIP receptor) [pM]	relative activity (GIP receptor) [%]
B1	230	9.68	1230	6.41	38.7	30.2
Y[Aib]EGTFTSDYSIYLDKQAA[Aib]EFVNWLLAGGPSSGAPPPSK(Myristoyl)-NH2 [mt-260]	6.8		321		1.8	
Y[Aib]EGTFTSDYSIYLDKQAA[Aib]EFVNWLLAGGPSSGAPPPSC(PEG 40 kDa)-NH2 [mt-274]	91.6	7.75	69100	0.06	35	39.7
Y[Aib]EGTFTSDYSIYLDKQAA[Aib]EFVC(PEG 40 kDa)WLLAGGPSSGAPPPSK-NH2 (not fully specified) [mt-311]	217	7.22	197000	0.03	54.5	37.8
Y[Aib]EGTFTSDYSIYLDKQAA[Aib]EFVC(PEG 40 kDa)WLLAGGPSSGAPPPSK(Palmitoyl)-NH2 [mt-298]	8.7	180	1760	3.63	5.1	404
YXQGTFTSDYSIYLDXQAAXEFVNWLLAGGPSSGAPPPSC (Orn at position 16; AIB at position 20) [mt-275]	6.8	104	67.1	62.1	12.4	112
Y[Aib]EGTFTSDYSIYLDKQAA[Aib]EFVC(PEG 40 kDa)WLLAGGPSSGAPPPSK(Myristoyl)-NH2 [mt-309]	10.4	151	3610	1.77	9.1	226
B2	23.7				5.7	
Y[Aib]EGTFTSDYSIYLDKQAA[Aib]EFVCWLLAGGPSSGAPPPSK(C18 fatty acyl)-NH2 [mt-307]	14.3				12.7	
B3	6.6	108	53.7	77.7	8	174
Y[Aib]EGTFTSDYSIYLDKQAA[Aib]EFVC(PEG 40 kDa)WLLAGGPSSGAPPPSK(C18 fatty acyl)-NH2 [mt-310]	6.2	253	775	8.24	7.5	275
B4	20.1				6.4	
